Data on 2 variants can be found in article PMC9427776, “TTYH family members form tetrameric complexes at the cell membrane” (Communications Biology, 2022).

B1: mTTYH3-EGFP (HEK 293, pEGFP-N1) [mouse] / itself (parent)
chain: MAGVSYAAPWWVSLLHRLPHFDLRWEATSSQFRPEDADYQQALLLLGATALACLALDLLFLLFYSFWLCCRRRKTDEHLDADCCCTAWCVIITTLVCSAGIAVGFYGNGETSDGIHRATYSLRHANRTVAGVQDRVWDTAAALNRTAEPNLQSLERQLAGRQEPLRAVQRLQTLLGTLLGYTAAIPFWRNPGVSLEVLAEQVDLYDWYRWLGYLGLLLLDVIICLLVLVGLIRSSKGILVGVCLLGVLALVISWGALGLELAVSVGSSDFCVDPDTFVTKMVEEHSVLSGDILQYYLACSPRATNPFQQKLSGSHKALVEMQDVVAELLRNVPREHPATKDPLLRVQEVLNGTEVNLQHLTALVDCRSLHLDYVQALTGFCYDGVEGLIYLALFSFVTALMFSSIVCSIPHTWQQKRGPDDDGEEETAPGPRQAHDSLYRVHMPSLYSCGSSYGSEASIPAAAHTVSNAPVTEYMSQNANFQNPRCENTPLIGRESPPPSYTSSMRAKYLATSQPRPDSSGSGH

This test covers variants of B1. Description: FSEC. The following applies: with itself; DDM solubilized HEK 293 cells; n = 3; parent: 0.98; read off a plot.
Turning to chain 1 C366A, the screen value stood at 0.25.

As to chain 1 C299A, the screen value is 0.27.
